In assay [1] the target is T1, CD73 on the surface of human cells (human, UniProt P21589 27-549).
T1 construct: whole, on cells; The cell line of each value is named under assay or readout; also called CD73 on the surface of tumor cells; CD73 enzyme on the surface of MDA-MB-231 cells
T1 sequence (looked up): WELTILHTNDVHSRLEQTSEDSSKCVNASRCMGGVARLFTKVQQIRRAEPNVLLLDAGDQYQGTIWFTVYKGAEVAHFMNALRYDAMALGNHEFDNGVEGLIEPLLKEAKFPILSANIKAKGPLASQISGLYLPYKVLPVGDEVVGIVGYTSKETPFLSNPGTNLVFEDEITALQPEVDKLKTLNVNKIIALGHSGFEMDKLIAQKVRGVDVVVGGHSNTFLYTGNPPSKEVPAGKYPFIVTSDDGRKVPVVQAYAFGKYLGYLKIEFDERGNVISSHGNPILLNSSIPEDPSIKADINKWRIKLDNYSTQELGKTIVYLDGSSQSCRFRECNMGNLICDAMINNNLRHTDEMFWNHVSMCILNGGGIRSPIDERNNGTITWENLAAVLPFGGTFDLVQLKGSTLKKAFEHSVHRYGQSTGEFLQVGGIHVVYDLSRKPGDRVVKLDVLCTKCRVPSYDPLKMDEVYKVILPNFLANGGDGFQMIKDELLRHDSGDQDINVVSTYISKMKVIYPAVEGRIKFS
In words: Flow cytometry on NCI-H1299 cells. The method, then:
100 μL of the test antibodies diluted from 10 μg/mL to 0.016 μg/mL in a 5-fold gradient were used as the primary antibodies, and were mixed with 1×10⁵ tumor cells suspended in 100 μL RPMI-1640 serum-free medium to make a final concentration of 5 μg/mL diluted to 0.008 μg/mL, and then incubated at 4° C. for 1 h. The cells were washed twice with PBS to remove unbound primary antibodies, and then the target cells were incubated with 200 μLPE-labeled secondary antibody at 2 μg/mL at 4° C. for 30 min. The cells were washed twice with PBS to remove unbound secondary antibodies, and finally the cells were resuspended in 200 μL PBS. The binding affinity of the test antibodies to CD73 on the surface of the corresponding cells was measured by flow cytometry.
The binding affinity of the humanized antibodies to NCI-H1299 cells was detected according to the method for determining the binding affinity of CD73 on the surface of tumor cells in Example 5.
Background: A flow cytometer gives signals particle by particle.

Assay [2] addresses T2, extracellular domain of human CD73 protein, C-terminus polyhistidine-tagged (human, UniProt P21589 27-547).
T2 construct: also the immunogen; also called CD73-ECD; human CD73-ECD
T2 sequence: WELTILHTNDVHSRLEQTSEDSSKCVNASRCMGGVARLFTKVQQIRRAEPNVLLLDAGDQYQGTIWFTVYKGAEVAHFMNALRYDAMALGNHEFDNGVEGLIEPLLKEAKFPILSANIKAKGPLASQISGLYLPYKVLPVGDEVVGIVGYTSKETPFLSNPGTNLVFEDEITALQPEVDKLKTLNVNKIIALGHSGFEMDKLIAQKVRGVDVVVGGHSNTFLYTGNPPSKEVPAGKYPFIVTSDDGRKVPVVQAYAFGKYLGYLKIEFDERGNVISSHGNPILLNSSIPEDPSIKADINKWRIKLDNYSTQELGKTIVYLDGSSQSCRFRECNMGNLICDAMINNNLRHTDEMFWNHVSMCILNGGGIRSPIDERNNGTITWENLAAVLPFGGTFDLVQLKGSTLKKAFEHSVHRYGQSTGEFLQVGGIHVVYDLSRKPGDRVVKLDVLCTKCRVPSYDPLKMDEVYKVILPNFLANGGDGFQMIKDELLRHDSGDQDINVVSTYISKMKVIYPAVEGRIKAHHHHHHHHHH
In words: ELISA, coated CD73-ECD, method of Example 3. The procedure: (§1) The CD73 protein extracellular region (CD73-ECD) was diluted to 1 μg/mL using the coating solution, and an ELISA plate was coated at 100 μL/well at 4° C. overnight. Excess antigens were washed away, and the plate was blocked with 1% BSA at room temperature for 2 hours. Then, 5-fold gradient dilutions of each monoclonal antibody were added at 100 μL/well and incubated at room temperature for 1 hour. Unbound antibodies were washed away, and an appropriate concentration of Staphylococcal protein A labeled with horseradish peroxidase was added at 100 μL/well and incubated at room temperature for 0.5 hours. Unbound secondary antibodies were washed away, and TMB color development solution was added to react for about 15 minutes. 1M HCL was added at 50 µL/well to terminate the color development reaction, and then the absorbance was measured at 450 nm and the data was analyzed.
(§2) Based on the above mutants, 5-E11ASCS was designed and prepared, and the CD73 antigen ELISA binding affinity test was performed according to the method of Example 3.
(In general: In an ELISA, binding on a coated surface is turned into a signal by an enzyme label.)

Assay [3] addresses T2, extracellular domain of human CD73 …. In words: ELISA on coated human CD73-ECD (the text rounds this value to 0.05 µg/mL). The procedure: as §1, §2
For assay [4] the target is unchanged. In words: ELISA on CD73-ECD, 4 µL supernatant of antibody expression, second of two readings; PBS 0.19, 0.18.
Assay [5] has the same target. In words: ELISA on CD73-ECD, 0.8 µL supernatant of antibody expression, first of two readings; PBS 0.19, 0.18. The method, then: as §1
(§3) CD73 antigen ELISA binding affinity test was performed according to the method of Example 3.

The target is the same in assay [6]. Kind of assay: ELISA on CD73-ECD, 20 µL supernatant of antibody expression, second of two readings; PBS 0.19, 0.18. The method, then:
as §1, §3

The target is the same in assay [7]. Kind of assay: ELISA on CD73-ECD, 0.8 µL supernatant of antibody expression, second of two readings; PBS 0.19, 0.18. The procedure: as §1, §3
Assay [8] has the same target. Kind of assay: ELISA on CD73-ECD, 100 µL supernatant of antibody expression, second of two readings; PBS 0.19, 0.18.

The record followed here is patent US20250382376A1 (FUDAN UNIVERSITY, published 2025).

B1: chimeric nanobody 3-D7 (Fc fusion)
VHH: QRQLVESGGGLVQPGGSLRLSCAASGFLLDYYVIGWFRQAPGKEREGVSCISGSDRSTYYADSVKGRFTISRDNAKNTVYLQMNSLKPEDTAVYFCAADPSPVTVQAMCLPRFPVPYWGQGTQVTVST
notes: Human-alpaca chimeric antibody (VHH on hIgG1 Fc); Only the VHH is tied to the tested molecule; 37-39 exist for 3-D7-FC1/FC2/FC3; also called original antibody 3-D7
As for B1, in assay [1], the “Max MFI” value amounted to 105000 MFI.

B2: chimeric nanobody 5-E11 (Fc fusion)
VHH: ALQLVESGGGLVQPGGSLRLSCEVSGFTLDYYNIGWFRQAPGKEREGVSCSSNSGGSTYYADSVKGRFTISRDNAKNTVYLQMNSLKPEDTGVYYCAAYRGWHPSLDARVYDYWGQGTEVTVSS
notes: Human-alpaca chimeric antibody (VHH on hIgG1 Fc); Only the VHH is tied to the tested molecule; also called original antibody 5-E11
Usually EC50 stands for the midpoint of the concentration-response curve. Low values mean a more potent agent, high ones a less potent agent. In the case of B2, the concentration giving a half-maximal response (EC50) in assay [2] worked out at 0.05 µg/mL; in assay [3], 0.0536 µg/mL. The “ELISA reading (not named on the sheet)” value in assay [4] is 4.17; in assay [5], 4.18; in assay [6], 4.32; in assay [7], 4.16; in assay [8], 4.23.
